Molecular target: N-terminal GST-like domain of P. berghei glutamyl-tRNA synthetase (ERS-N) (P. berghei)
Test: SEC-SAXS

N-terminal GST-like domain of P. berghei glutamyl-tRNA synthetase (ERS-N) (from UniProt A0A509AR09 1-240) (domain or fragment)
percent of dimers (OLIGOMER fit): 77.9% | percent of tetramers (OLIGOMER fit): 22.1%
